IntAct's records for PubMed 18647389

B1: RalBP1-associated Eps domain-containing protein 2 (Homo sapiens), Q8NFH8 (parent)
chain: MEAAAAAAAAAAAAAAAGGGCGSGPPPLLLSEGEQQCYSELFARCAGAAGGGPGSGPPEAARVAPGTATAAAGPVADLFRASQLPAETLHQITELCGAKRVGYFGPTQFYIALKLIAAAQSGLPVRIESIKCELPLPRFMMSKNDGEIRFGNPAELHGTKVQIPYLTTEKNSFKRMDDEDKQQETQSPTMSPLASPPSSPPHYQRVPLSHGYSKLRSSAEQMHPAPYEARQPLVQPEGSSSGGPGTKPLRHQASLIRSFSVERELQDNSSYPDEPWRITEEQREYYVNQFRSLQPDPSSFISGSVAKNFFTKSKLSIPELSYIWELSDADCDGALTLPEFCAAFHLIVARKNGYPLPEGLPPTLQPEYLQAAFPKPKWDCQLFDSYSESLPANQQPRDLNRMEKTSVKDMADLPVPNQDVTSDDKQALKSTINEALPKDVSEDPATPKDSNSLKARPRSRSYSSTSIEEAMKRGEDPPTPPPRPQKTHSRASSLDLNKVFQPSVPATKSGLLPPPPALPPRPCPSQSEQVSEAELLPQLSRAPSQAAESSPAKKDVLYSQPPSKPIRRKFRPENQATENQEPSTAASGPASAATMKPHPTVQKQSSKQKKAIQTAIRKNKEANAVLARLNSELQQQLKEVHQERIALENQLEQLRPVTVL
B2: RalBP1-associated Eps domain-containing protein 2 (Homo sapiens), Q8NFH8 (parent)
chain: B1 chain
partner: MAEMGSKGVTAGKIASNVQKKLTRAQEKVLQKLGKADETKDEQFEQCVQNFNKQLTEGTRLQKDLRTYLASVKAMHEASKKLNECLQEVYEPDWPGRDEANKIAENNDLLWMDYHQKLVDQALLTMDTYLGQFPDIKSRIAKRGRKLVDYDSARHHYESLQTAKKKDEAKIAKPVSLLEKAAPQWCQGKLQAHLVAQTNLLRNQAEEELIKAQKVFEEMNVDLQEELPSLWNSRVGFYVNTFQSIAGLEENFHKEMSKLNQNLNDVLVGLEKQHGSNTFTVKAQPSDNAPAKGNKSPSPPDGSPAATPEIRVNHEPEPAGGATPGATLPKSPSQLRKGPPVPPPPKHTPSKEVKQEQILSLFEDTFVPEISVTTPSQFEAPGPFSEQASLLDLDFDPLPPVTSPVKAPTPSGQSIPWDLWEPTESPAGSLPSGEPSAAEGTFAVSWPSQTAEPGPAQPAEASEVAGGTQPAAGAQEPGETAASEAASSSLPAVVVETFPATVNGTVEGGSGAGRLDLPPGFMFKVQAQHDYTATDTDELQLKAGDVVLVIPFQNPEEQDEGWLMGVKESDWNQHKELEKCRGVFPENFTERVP

Variants of: B1
Conditions: with grb2_human GRB2, P62993
grb2_human GRB2, P62993, sequence (P62993 whole entry, looked up): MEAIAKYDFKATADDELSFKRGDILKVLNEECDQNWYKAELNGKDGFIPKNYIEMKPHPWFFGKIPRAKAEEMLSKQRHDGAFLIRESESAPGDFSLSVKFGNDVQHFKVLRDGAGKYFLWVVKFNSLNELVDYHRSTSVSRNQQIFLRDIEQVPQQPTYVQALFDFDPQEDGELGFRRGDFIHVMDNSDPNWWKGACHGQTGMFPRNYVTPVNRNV

Row | Variant | effect of a mutation on the interaction
1 | P484A | disrupting interaction

Variants of: B1
Conditions: with grb2_human GRB2, P62993
Remark: another data set of the same source

Row | Variant | effect of a mutation on the interaction
2 | P480A | disrupting interaction

Variants of: B1
Conditions: with 1433z_human YWHAZ

Row | Variant | effect of a mutation on the interaction
3 | S493A | disrupting interaction

Variants of: B1
Conditions: with grb2_human GRB2, P62993
Remark: another data set of the same source

Row | Variant | effect of a mutation on the interaction
4 | R483A | disrupting interaction

Variants of: B2
Conditions: with bin1_human BIN1, O00499

Row | Variant | effect of a mutation on the interaction
5 | P447A | disrupting interaction

Variants of: B2
Conditions: with bin1_human BIN1, O00499
Remark: another data set of the same source

Row | Variant | effect of a mutation on the interaction
6 | R483A | decreasing interaction

Variants of: B2
Conditions: with bin1_human BIN1, O00499
Remark: another data set of the same source

Row | Variant | effect of a mutation on the interaction
7 | R483A | disrupting interaction strength
